Measured values taken from IntAct's records for PubMed 10220404.

B1: Protein enabled (Drosophila melanogaster (Fruit fly)), Q8T4F7 (parent)
chain: MAMKKLYAKTSFTSKKPSSAANSTPILAYHQQQHQQPGNGICEFQVVAPGHSGELMIRRSQSMHHKMSPPVGGLGSKSEYYSIEELQELDLLDYRHPMYHHYQQQELRQRYHEHEQLVLQLPKATSPKAGPIYEAPQRSQQQQDQMLYVPTAAQRDSSSSAAATSIASSSTLTSSPSPSSSSSLIFSTLRKCVSPSNPSVNPNQPSKTQPSKLGCSMSFSIRTTTATAATAAAANAATATLSTQQQQQQAQQQHKQHLYSNIHHYLIRQQQQKQHYTLQRRHNSVKDKFIGGITTIFAEQSIIGARASVMVYDDNQKKWVPSGSSSGLSKVQIYHHQQNNTFRVVGRKLQDHEVVINCSILKGLKYNQATATFHQWRDSKFVYGLNFSSQNDAENFARAMMHALEVLSGRVANNPGGPPTNGNGYEEDMGYRTMTSEDAAILRQNNSIGGHVTPSAQTPTSQTNQNNIPQSPPTPQGHHRTSSAPPAPQPQQQQQQQQAQQMGQPGSHYGPTGNGPTSNGLPQQVNSQIPPAPQQQPQQQQFQQQQQQQQYQQMVQAGYAPSQQYQQPHYVLSNSNPNLTVHQYPTQQAQQQPPQAPQPPLQNGGMYMVGHGHLPSSASANSVVYASQQQMLPQAHPQAPQAPTMPGPGYGGPPVPPPQQQAENPYGQVPMPPPMNPSQQQQPGQVPLNRMSSQGGPGGPPAPAPPPPPPSFGGAAGGGPPPPAPPQMFNGAPPPPAMGGGPPPAPPAPPAMGGGPPPAPGGPGAPPPPPPPPGLGGAPKKEDPQADLMGSLASQLQQIKLKKNKVTTSAPENSGSSTSSGGSGNYGTIGRSSNGMASMMDEMAKTLARRRAQAEKKDPDPEAEVKKRPWEKSNTLPHKLSGGAGSGSAGSGHEGANGNSGGAGSNTTNSGGESPRPMRKRFGSASEETILKVNGDGLSLALSNGDLDTLKAEIVREMRLEIQKVKNEIIDAIKSEFNRR

Legend:
[1] = variants of: B1; details: with abl_drome Abl
[2] = variants of: B1; details: with src_mouse Src

Variant: P763A;P770A;P771A;P772A
- effect of a mutation on the interaction [1]: decreasing interaction
- effect of a mutation on the interaction [2]: decreasing interaction

Variant: P701A;P707A;P708A;P709A
- effect of a mutation on the interaction [1]: decreasing interaction
- effect of a mutation on the interaction [2]: decreasing interaction
